# Source: US20260242478A1 (published 2026)
# Where no end group is shown, it is not given here.
# B1: Phage-2770 (peptide)
# peptide: QIKWCIPMWMCEGE
# notes: Clone of the Peptide-180 optimisation library, tested as clonal phage supernatant (peptide fused to pIII of the bacteriophage)
# B2: Phage-2765 (peptide)
# peptide: HAIWCIPEWMCAFN
# modifications: cysteine pairing not given here; also: fused to pIII, displayed on bacteriophage
# notes: as for B1
# B3: Phage-2764 (peptide)
# peptide: ENHWCRPMWMCETI
# notes: as for B1
# B4: Phage-2766 (peptide)
# peptide: VEKWCTPAWMCSTS
# notes: as for B1
# B5: Phage-2769 (peptide)
# peptide: SYKWCTPDWMCVAV
# notes: as for B1
# B6: Phage-2767 (peptide)
# peptide: DVTWCIPPWMCMYN
# notes: as for B1
# B7: Phage-2768 (peptide)
# peptide: AENWCTPRWMCEGI
# notes: as for B1
# B8: Phage-2849 (peptide)
# peptide: VFPICKPSWMCVGM
# modifications: cysteine pairing not given here; also: fused to pIII of bacteriophage, linker and pIII sequence not given here
# notes: Clonal phage of the Peptide-180 optimization library, tested as crude phage supernatant; not shown: fused to pIII of the bacteriophage
# B9: Phage-2841 (peptide)
# peptide: ESIRCTPAWMCVEM
# modifications: cysteine pairing not given here; also: fused to pIII of bacteriophage, linker and pIII sequence not given here
# notes: as for B8
# B10: Phage-2844 (peptide)
# peptide: VVAMCKPAWMCAGL
# modifications: cysteine pairing not given here; also: fused to pIII of bacteriophage, linker and pIII sequence not given here
# notes: as for B8
# B11: Phage-2848 (peptide)
# peptide: VMTVCKPAWMCTGF
# modifications: cysteine pairing not given here; also: fused to pIII of bacteriophage, linker and pIII sequence not given here
# notes: as for B8
# B12: Phage-2835 (peptide)
# peptide: VAKLCTPAWMCSAM
# modifications: cysteine pairing not given here; also: fused to pIII of bacteriophage, linker and pIII sequence not given here
# notes: as for B8
# B13: Phage-2839 (peptide)
# peptide: DSHWCMPVWMCMGL
# modifications: cysteine pairing not given here; also: fused to pIII of bacteriophage, linker and pIII sequence not given here
# notes: as for B8
# B14: Phage-2847 (peptide)
# peptide: WMPRCVPEWMCAGF
# modifications: cysteine pairing not given here; also: fused to pIII of bacteriophage, linker and pIII sequence not given here
# notes: as for B8
# B15: Phage-2843 (peptide)
# peptide: MLPICKPDWMCAGF
# modifications: cysteine pairing not given here; also: fused to pIII of bacteriophage, linker and pIII sequence not given here
# notes: as for B8
# B16: Phage-2838 (peptide)
# peptide: HPKLCTPEWMCVIQ
# modifications: cysteine pairing not given here; also: fused to pIII of bacteriophage, linker and pIII sequence not given here
# notes: as for B8
# B17: Phage-2840 (peptide)
# peptide: EPQWCIPKWMCDHM
# modifications: cysteine pairing not given here; also: fused to pIII of bacteriophage, linker and pIII sequence not given here
# notes: as for B8
# B18: Phage-2837 (peptide)
# peptide: VDRWCTPPWMCDWQ
# modifications: cysteine pairing not given here; also: fused to pIII of bacteriophage, linker and pIII sequence not given here
# notes: as for B8
# B19: Phage-2842 (peptide)
# peptide: PEVMCRPVWMCLGF
# modifications: cysteine pairing not given here; also: fused to phage pIII, linker not given here
# notes: as for B8
# B20: Phage-2845 (peptide)
# peptide: WDMLCRPAWMCEGF
# modifications: cysteine pairing not given here; also: fused to pIII of bacteriophage, linker and pIII sequence not given here
# notes: as for B8
# B21: Phage-2846 (peptide)
# peptide: WEVRCVPEWMCVGF
# modifications: cysteine pairing not given here; also: fused to pIII of bacteriophage, linker and pIII sequence not given here
# notes: as for B8
# B22: Phage-2836 (peptide)
# peptide: DWKLCKPTWMCESL
# modifications: cysteine pairing not given here; also: fused to pIII of bacteriophage, linker and pIII sequence not given here
# notes: as for B8
# B23: Phage-3434 (peptide)
# peptide: EIPYCVPQWMCVAM
# B24: Phage-3435 (peptide)
# peptide: VLHMCVPLWMCHGL
# Target: T1, 006 PSMA Fab (biotinylated (site not stated))
# T1 construct: Biotinylated PSMA Fab captured on neutravidin coated plates in the panning ELISA; also called Anti-PSMA Fab
# Assay: clonal phage ELISA on captured PSMA Fab, wells pre-incubated with PSMA antigen as competitor
# Procedure: (§1) Clonal phage were harvested as crude supernatants and screened via standard ELISAs. […] Prior to the addition of clonal phage. wells were incubated with blocking buffer and PSMA antigen or blocking buffer alone. Without washing or aspirating, clonal phage supernatants were then added to the wells and incubated for a short time. Wells were then washed followed by detection of bound phage using a horse radish conjugated anti-M13 antibody.
row,Binder,phage binding ELISA signal in presence of PSMA antigen
1,B1,0.0554
2,B2,0.124
3,B3,0.0683
4,B4,0.065
5,B5,0.0709
6,B6,0.0814
7,B7,0.201

# Target: T2, 006 PSMA Fab
# T2 construct: also called Anti-PSMA Fab
# Assay: clonal phage ELISA on biotinylated PSMA Fab captured on neutravidin plates, anti-M13 HRP detection;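 also: crude clonal phage supernatants tested, before phage were added, wells were pretreated with PSMA antigen in blocking buffer or with blocking buffer only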
# Procedure: as §1
row,Binder,"Phage binding ELISA signal, Anti-PSMA Fab"
1,B8,2.46
2,B9,0.421
3,B10,2.48
4,B11,2.47
5,B12,0.431
6,B13,0.423
7,B14,2.48
8,B15,2.49
9,B16,0.424
10,B17,0.423
11,B18,0.429
12,B19,2.51
13,B20,2.48
14,B21,2.48
15,B22,0.43

# Target: T1, 006 PSMA Fab
# Assay: clonal phage ELISA on biotinylated PSMA Fab captured on neutravidin plates, anti-M13-HRP detection;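 also: crude clonal phage supernatants added to wells preincubated with PSMA antigen or with blocking buffer only (no wash between), briefly incubated, then washed before detecting bound phage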
# Procedure: as §1
row,Binder,phage binding ELISA signal
1,B1,0.651
2,B2,0.658
3,B3,0.66
4,B4,0.657
5,B5,0.651
6,B6,0.655
7,B7,0.655

# Target: T3, PSMA Fab
# T3 construct: also called Anti-PSMA Fab; 006 PSMA Fab
# Assay: phage ELISA; biotinylated PSMA Fab on neutravidin plate, blocking buffer alone, anti-M13 HRP detection
# Procedure: as §1
row,Binder,"Phage binding ELISA signal, Anti-PSMA Fab"
1,B23,1.76
2,B24,1.76

# Target: T2, 006 PSMA Fab
# Assay: clonal phage ELISA on captured PSMA Fab pre-incubated with PSMA antigen as competitor, anti-M13 HRP detection;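 also: crude clonal phage supernatants tested by ELISA, wells first treated with blocking buffer plus PSMA antigen, bound phage read out via HRP-linked anti-M13 antibody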
# Procedure: as §1
row,Binder,"Phage binding ELISA signal, Anti-PSMA Fab with PSMA antigen"
1,B8,0.174
2,B9,0.0725
3,B10,0.0731
4,B11,0.205
5,B12,0.0638
6,B13,0.156
7,B14,0.334
8,B15,0.0942
9,B16,0.104
10,B17,0.0608
11,B18,0.0626
12,B19,0.112
13,B20,0.157
14,B21,0.119
15,B22,0.0664

# Target: T3, PSMA Fab
# Assay: phage ELISA; biotinylated PSMA Fab on neutravidin plate, pre-incubated with PSMA antigen as competitor, anti-M13 HRP detection
# Procedure: as §1
row,Binder,"Phage binding ELISA signal, Anti-PSMA Fab in presence of PSMA"
1,B23,0.0788
2,B24,0.133
